{"source": "patent US20200010567A1", "about": "(NEURIMMUNE, published 2020)", "binders": {"B1": {"name": "NI-308.28G1 (antibody, V domains shown)", "VH": "QVQLQESGPRLVKPSETLSLTCTVAGGSVNSYYWTWIQQSPGKGLEWLGRIYIAGRTNYNPSLTSRIALSVDTSRNQLSLKLTSVTAADTAIYYCARWGAESGDYYYGVDVWGPGTLVTVSS", "VL": "EIVMTQSPLSLPVTPGEPASISCKSSEGLLHSNGYTYLDWYLQKPGQAPQLLIFLASNRAAGVPDRFSGSGSGTDFTLKISRVEAEDVGVYYCMQAIQSPWTFGPGTKVEIK", "notes": "Recombinant complete human IgG1, kappa"}}, "target": "T1, BSA-coupled (GA)15 DPR protein peptide (bovine, conjugated via a bifunctional linker (SMCC) to bovine serum albumin)", "T1 construct": "also called BSA-(GA)15", "T1 sequence (P02769 25-607 limits assumed)": "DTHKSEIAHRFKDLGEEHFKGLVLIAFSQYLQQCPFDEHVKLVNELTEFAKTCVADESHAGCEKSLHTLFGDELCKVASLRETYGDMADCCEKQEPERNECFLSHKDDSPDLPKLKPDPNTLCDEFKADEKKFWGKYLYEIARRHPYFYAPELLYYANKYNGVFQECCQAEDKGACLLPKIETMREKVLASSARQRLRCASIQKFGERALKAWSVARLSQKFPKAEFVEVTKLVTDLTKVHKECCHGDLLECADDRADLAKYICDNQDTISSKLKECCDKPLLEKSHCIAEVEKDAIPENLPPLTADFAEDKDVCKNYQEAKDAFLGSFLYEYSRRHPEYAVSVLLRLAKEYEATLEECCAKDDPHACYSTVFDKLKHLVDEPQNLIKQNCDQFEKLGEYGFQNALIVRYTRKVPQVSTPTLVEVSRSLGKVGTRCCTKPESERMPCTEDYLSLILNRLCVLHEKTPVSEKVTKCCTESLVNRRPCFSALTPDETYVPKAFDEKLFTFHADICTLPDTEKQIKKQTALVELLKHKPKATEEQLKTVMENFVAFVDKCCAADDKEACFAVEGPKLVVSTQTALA", "experiment": "indirect ELISA, BSA-coupled peptide coated, antibody titrated [also D00013 FIG. 3D]", "method": "In brief, dipeptide repeat proteins were synthesized and purified by Schafer-N(Copenhagen, Denmark): (GA)₁₅: H-CHHHHHH(GA)₁₅-OH; (GP)₁₅: H-C(GP)₁₅-OH; (GR)₁₅: H-C(GR)₁₅-OH; (PA)₁₅: H-C(PA)₁₅-OH; (PR)₁₅: H—C(PR)₁₅-OH. DPR protein peptides were then conjugated via a bifunctional linker (SMCC) to bovine serum albumin (BSA). 96-well microplates (Corning Incorporated, Corning, USA) were coated with BSA-coupled or -uncoupled dipeptide repeat protein peptides at a concentration of either 5 μg/ml or 20 μg/ml in coating buffer (15 mM Na₂CO₃, 35 mM NaHCO₃, pH 9.42). Non-specific binding sites were blocked for 1 h at room temperature with PBS/0.1% Tween®-20 containing 2% BSA (Sigma-Aldrich, Buchs, Switzerland). Primary antibodies were diluted to the indicated concentrations and incubated 1 h at room temperature, followed by incubation with a donkey anti-human IgG Fcγ-specific antibody conjugated with HRP (Jackson ImmunoResearch Laboratories, Inc., West Grove, USA). Binding was determined by measurement of HRP activity in a standard colorimetric assay. EC₅₀ values were estimated by non-linear regression using GraphPad Prism software (San Diego, USA).", "data": [{"binder": "B1", "values": [{"measurement": "EC50", "result": 0.66, "unit": "nM"}]}]}
